# Measurements: the DeepSol protein solubility set
# Test: soluble on expression in E. coli; label from the status in PepcDB or PDB records
row,Sequence,soluble on expression in E. coli
1,MTTATAGLAVELKQSTAQAHEKAEHSTFMSDLLKGRLGVAEFTRLQEQAWLFYTALEQAVDAVRASGFAESLLDPALNRAEVLARDLDKLNGSSEWRSRITASPAVIDYVNRLEEIRDNVDGPALVAHHYVRYLGNLSGGQVIARMMQRHYGVDPEALGFYHFEGIAKLKVYKDEYREKLNNLELSDEQREHLLKEATDAFVFNHQVFADLGKGL,soluble
2,MSEEGFMLAVLKGIPLIQDIRAEGNSRSWIMTIDGHPARGEIFSEAFSISLFLNDLESLPKPCLAYVTLLLAAHPDVHDYAIQLTADGGWLNGYYTTSSSSELIAIEIEKHLALTCILKNVIRNHHKLYSGGV,not soluble
3,MGSDKIHHHHHHMNPSPLPYFLGCPSWSENAWRDYLYPADANSNQMLGFYSQVFNAVEGNTTFYARPAPGTIARWAQLMPEHFRFTAKFPRDVSHEGDLRDQLEPAFDFTRLMAPLGRRVSPYWLQLPAQFGPARLGELCHFLDQIAVPVAVEVRNQAFFAKGEEERLLNRLLHERGVERICLDPRALFSCTSRDPAVLHAQSKKPKVPPRPAAFSQHPQVRFIGHPELEANHTFLSPWVEKVAAWIEEGRNPYIFLHTSDNRLAAALAQRFHQRLMARLPGLAPLPELPRAPEVEQLGLL,not soluble
4,MGSDKIHHHHHHMPKSVQDDAIEAGTLLSVQGLTVGLPPGMDRRYAVEDMSFDLKAGEILCIIGESGSGKSVTANATMGLLAQSLHIVSGSIMLEGQELVGADAATLRALRGRIVSMIFQDPLSALNPLMTVGDQIAEVMEAHGIGTQQERRARVLDLITEVGLPDPELMQHQYPFRLSGGQRQRVMIAMALALEPKVLIADEPTTALDVTTQAQILELIASIQRRKQMSVMFITHDFGVVAEIADRVIVMEKGHVVEQGSASVVLKSPDHPYTQRLIAAVPRMRASDRENEADTPVVLEARNLCKTYGTGSGFLSKGRVIKAVDDVSFTIAKGRTLGIVGESGSGKSSLGRLLVKLMNSDSGEILFGGRDIAPLSEEAFRSMRPYIQMIFQDPFASLNPRQTIGRILTVGPVAQATPIHEARTRAMRLLERVGLDAGAYDRYPHEFSGGQRQRIGIARALMFNPMLIVADEAVSALDVSIQAQILQLLTEVQQEMKLAMAFITHDLRVASQICDEIAVMYKGRIVEYGPPSQIFRNPTHDYTRQLVSAIPGTEWEPAVMV,not soluble
5,MGSSHHHHHHGKTIFVIVPTNEEQVAFLEALAKQDELNFDWQNPPTEPGQPVVILIPSDMVEWFLEMLKAKGIPFTVYVEEGGSENLYFQGGGGGGAHSLMRQMMLASVIRFTAVFLGIRRCRGAFVVAPLFVLQPLLQHLQQLITHPLTCLQGGIQWQLHALVEHLVHLQHLPSPRVQLSHVTKKRRAPVRKVVCGRIIHVHRTLLLLKQLRLLGVPGTQRAESSEHGGEPLTAVLVQLDKSIASRSGDNGDGGGRCR,not soluble
6,MSTNIFLHLPTTISTERTILRKTSFADATTLFDIWSDNDVAQFMNIEKFSTILQAEEMIQAIENEPNACRYTIFTMDNSLKAIGSLGINDINKNNQTIEIGYELAKSHWRQGLMFEILTTFLNTTKAHLPYKTITAKVLPENIASIKLLTKLGFELISTGQELDLHSGKICEISNYQLILN,not soluble
7,MGHHHHHHSHMKVGKNNFRPPPKVESSVVRIEPKNPPPPINFQEWDGLVRITFVRKNKTLSAAFKSSAVQQLLEKNYRIHCSVHNIIIPEDFSIADKIQQILTSTGFSDKRARSMDIDDFIRLLHGFNAEGIHFS,not soluble
8,MSLNRYLAAPEIKANETLVIADRYAYFNIPSWKGAGVAVPVFSLKSEKSFGVGDFGDLKRMVDWAVSTNQKVVQILPINDTTMTHTWTDSYPYNSISIYAFHPMYADLKQMGNLKDKETAAAFNRKQKELNALSAIDYEAVNRVKWEYFHQIFKQEGEKVLASKAFRSFFEANKDWLQPYAAFSYLRDLYHTPNFREWPQYSEYNAQEIEELCRPDTADYAHIAIYFYIQFNLHLQLLEATTYAREHGVVLKGDIPIGISRNSVEAWTEPYYFNLNGQAGAPPDDFSINGQNWGFPTYNWDVMENDGYKWWMKRFQKMAEYFDAYRIDHILGFFRIWEIPMNAVHGLLGQFVPALPMSREEIESYGLSFREEFLRPYIHEYFLGQVFGPHTDYVKQTFIEPTETYEVYRMRPEFDTQRKVEAFFAGKNDEDSIWVRDGLYALISDVLFVPDRKDPNLYHPRIGVQHDFIYRALNDWEKTAFNRLYDQYYYHRHNDFWQQQAMKKLPQLTQSTRMLVCGEDLGMIPDCVAWVMNDLRILSLEIQRMPKNPAEEFGRLNEYPYRSVCTFSTHDMSTLRGWWEEDYQQTQRYYNQMLGHYGTAPAIATPELCEEIVRNHLYSNSILCILSLQDWLSMDGKWRNPNVQEERINIPANPRHYWRYRMHLTLEQLMKAESLNEKIRELVKQTGRNEGHHHHHH,soluble
9,MGSDKIHHHHHHMNITIATLGELLVEFLAKKENQGFSSPGEFWGPYPSGAPAIFADQVAKLGFRSLLFSCVGNDAFGVMNITRLSRDGVNVQGISVLPNATTGSAFVSYRSQAQRDFIFNMPDSACGLLSADHLDETLLRQYRHFHIMGSSLFSFRLIDAVRKAISIVKENGGTISFDPNIRKEMLKIREMSQAFEYILDYTDFFLPSDGELDYFGLSKSRDEEKIVARLHKRGIAHVIIKRGARGASYYSKDEQHHVAGYPVKVVDPTGAGDCFGATFVSLFLAGYSVPDALAHANAAGSLAISARGPMEGTSTLAQIKELMRQQN,not soluble
10,MGHHHHHHSHMQEWLYGEKGYYRKALIGQKGDFYTSVSVSKFFGGAVAFYIIKLLEEEKLFLPLKIVEIGSHHGHFLSDIASFLNALSVGVMEQCAFVSCEPLKELQKLQRTIFKQATQLDLMICDLKDLDFKGHENAFVVSNELFDAFACEIVKDNKMLFIAHDHKGVWGAIDEPTKELLKNLDLKQGCAPLFLEAFIKDLLEKLNEASSWVFLSFDYGDETERKDMHLRAFKNHQALDFKDILNNLASLYQQSDLTYDVNFSLVRFLFEKHHAQFSFFKTQANALLDMGLMGLLETFSKSVGYERYLKEAAKIKPLISPGGLGERFKALEFVKKNKM,not soluble
11,MGSDKIHHHHHHEEYFNAIRTNIQLSGVDIKVVGITSVKSNEGKSTTAASLAIAYARSGYKTVLVDADIRNSVMPGFFKPMTKITGLTDYLAGTTDLSQGLCDTDIPNLTVIESGKVSPNPTALLQSKSFENLLATLRRYYDYVIVDCPPLGLVIDAAIIAQKCDAMVAVVEAGNVKCSSLKKVKEQLEQTGTPFLGVILNKYDIATEKYGEYGNYGKKA,not soluble
12,MKCIAIDDEPLALKQLTDYISRVPFLSLVKSCQDAFEAMKVLADEEIDLIFVDINMPDLNGLDFIRSLISRPMVVFTTAYSEYAVDGFKLDAVDYLLKPFEFQDLLKAADKARKQYEYRMLEQQGELGNSSQIKGDSLFVKSDYKVVRIDVKNIRYIEGMSEYVRIFIEGEDKPVITLASLQKMEERLPTYFMRVHRSYIVNLRKITEVSRLRIIFDRNTYIPVGDNYKERFAEHISKLSFS,not soluble
13,MHHHHHHSSGRENLYFQGMAKERRRAVLELLQRPGNARCADCGAPDPDWASYTLGVFICLSCSGIHRNIPQVSKVKSVRLDAWEEAQVEFMASHGNDAARARFESKVPSFYYRPTPSDCQLLREQWIRAKYERQEFIYPEKQEPYSAGYREGFLWKRGRDNGQFLSRKFVLTEREGALKYFNRNDAKEPKAVMKIEHLNATFQPAKIGHPHGLQVTYLKDNSTRNIFIYHEDGKEIVDWFNALRAARFHYLQVAFPGASDADLVPKLSRNYLKEGYMEKTGPKQTEGFRKRWFTMDDRRLMYFKDPLDAFARGEVFIGSKESGYTVLHGFPPSTQGHHWPHGITIVTPDRKFLFACETESDQREWVAAFQKAVDRPMLPQEYAVEAHFKHKP,soluble
14,MKIAIAGAGAMGSRFGLMLKQGGNDVLLIDGWQEHINAIKENGLKANYNGEEITVKVSIVNQNEVPTGEQFDLIILFTKAMQLEKMLQDVKPLIADHTEVLCLLNGIGHEDVIEKFVPMEKIFIGNTMWTAGLEGPGKAKLFGSGSVELQNLGIGQEESAKKLAETLSASGLNAKYSDNIHYSIYRKACVNGTMNGLCTILDVNMAGLGATKPAHDMVVTIVNEFAAVAAKENVNLDIPEVIEHVETCFDPTTIGMHFPSMHQDLIKNNRLTEIDYINGAISRKGKKYGVVTPYCDFLTQLVHSKEEILGAK,not soluble
15,MAHHHHHHMVAKRKEFELTKVIQEATFLTFKGLDTHDVYNCCVPFKISGTYHIFGRVERRSEWVNSHVRLFRKTGHDEYTLVEHAMQYQLEDPFLVKINNEALFGGVRVTKDHGKVSGYVCDFYRGKIDDLHYFTSGPQNMKDIRLVVLADGKIGVFSHHKTSNTCITGFTIIDSLDDLCSQVIDSAKPIDHTLFGDAWGGVNQPYLLSTGKIGCISHHGYLDTDAHGEVINVYCITSFVYQPSANKCYDYKILGTKNCFPDYPAKALKLIDCAFVSGIVMREDGKCDLYSGVGDTREGRMVIDYPFEGHGTIADDLDF,not soluble
16,MALSAEGSSGGSRGGSPKAEAASVPSWPQILGRLTDNRDLARGQAAWAMDQIMTGNARPAQIAAFAVAMTMKAPTADEVGELAGVMLSHAHPLPADTVPDDAVDVVGTGGDGVNTVNLSTMAAIVVAAAGVPVVKHGNRAASSLSGGADTLEALGVRIDLGPDLVARSLAEVGIGFCFAPRFHPSYRHAAAVRREIGVPTVFNLLGPLTNPARPRAGLIGCAFADLAEVMAGVFAARRSSVLVVHGDDGLDELTTTTTSTIWRVAAGSVDKLTFDPAGFGFARAQLDQLAGGDAQANAAAVRAVLGGARGPVRDAVVLNAAGAIVAHAGLSSRAEWLPAWEEGLRRASAAIDTGAAEQLLARWVRFGRQILEHHHHHH,soluble
17,MATDTSSPKHEPIIIAVEPYGGSVRDHSPLLPLVYWDDAAVTRGDGVFETILFRHGRACNLERHAQRFRESAVLLDLPEPRLDHWVHATSMAVEKWFQQSESDAKCVWTYTRGRASTGHPSAWLTITAVPDCVIEQREQGVRVMTTPRGYHIDTSNSVPWVVIGAKTLNYASNMAALRWAKKEGFDDVIFTEQDRILEGATSTVVTFRGNKIRSPFPGGDVLPGTTQAALFDYATNLGWNCKLKDMDEVYLTEKADSVWLISSVRGATRVRRINDTKLPRPDNESEIRELIEAALTAL,not soluble
18,MKGVNMFERFTDRARRVIVLAQEEARGLNHNYIGTEHILLGLIHEGEGVAAKALESMGISLEAVRQEVEEIIGHGSEPPAGHIPFTPRAKKVLELSLREGLQMGHKYIGTEFLLLGLIREGDGVAAQVLVKLGADLPRVRQQVIQLLS,not soluble
19,MIRWMNEPLWPFIERKKSMRNLVKYVGIGLLVMGLAACDDKDTNATAQGSVAESNATGNPVNLLDGKLSFSLPADMTDQSGKLGTQANNMHVWSDATGQKAVIVIMGDDPKEDLAVLAKRLEDQQRSRDPQLQVVTNKAIELKGHKMQQLDSIISAKGQTAYSSVILGNVGNQLLTMQITLPADDQQKAQTTAENIINTLVIQ,not soluble
20,SLMQALARTGYAGPLSLEIFNDAFRAAPTEATAIDGLRSLIWIEELAEGAAWSEASPPAVGYDGVHFIEFTLDEESAAPLGEFFSALGFRHIGRHRSKNVELWHQGDIHLVLNFETDSFAHTFRLLHGTSVCAVGVRVNDLDSAVTRAAHYKAQWFRGPVGEGEMEIPALRGIEGSLVYLVDDAQAREMQWKTDFHLFEDGQDDDAGLINIDHISYVLPPTQLLSWLLFHRTVFGFDAGPEHEIADPHGMVVSQTVTSPDNSVRIPLTVSSARETLPGRFLSEHQGGVQQIAFASGDIFATIDAMLARGLPMLRIPANYYDDLAARFDLDDALLEAMRSRNILFDRNDDGDFFHAYTETFMGRFFFEVVERRGSYSQFGAVNAPIRLAAQAGQQREG,soluble
